Measurements published in patent US20220089725A1.

Legend:
[1] = target: human FCMR on blood cells (human) (UniProt O60667); assay: flow cytometry of fresh human whole blood, isotype control row of the left (2A5) panel; gated subset not stated; FMO row reads 24.7
[2] = target: human FCMR on blood cells (human) (UniProt O60667); assay: flow cytometry of fresh human whole blood, isotype control row of the right (3F9) panel; gated subset not stated; FMO row reads 24.7
[3] = target: recombinant human FCMR-Fc (human) (UniProt O60667); assay: SPR (Biacore), 25 C, antibody immobilised, FCMR-Fc titrated at 500 to 0 nM
[4] = target: human FCMR on blood cells (human) (UniProt O60667); assay: flow cytometry of fresh human whole blood, gated CD19+ B cells, aToso 2A5 : AF647, left panel
[5] = target: human FCMR on blood cells (human) (UniProt O60667); assay: flow cytometry of fresh human whole blood, gated CD3+CD4+ T cells, aToso 2A5 : AF647, left panel
[6] = target: human FCMR on blood cells (human) (UniProt O60667); assay: flow cytometry of fresh human whole blood, gated CD3+CD8+ T cells, aToso 2A5 : AF647, left panel

Sequence of UniProt O60667 (O60667 17-390): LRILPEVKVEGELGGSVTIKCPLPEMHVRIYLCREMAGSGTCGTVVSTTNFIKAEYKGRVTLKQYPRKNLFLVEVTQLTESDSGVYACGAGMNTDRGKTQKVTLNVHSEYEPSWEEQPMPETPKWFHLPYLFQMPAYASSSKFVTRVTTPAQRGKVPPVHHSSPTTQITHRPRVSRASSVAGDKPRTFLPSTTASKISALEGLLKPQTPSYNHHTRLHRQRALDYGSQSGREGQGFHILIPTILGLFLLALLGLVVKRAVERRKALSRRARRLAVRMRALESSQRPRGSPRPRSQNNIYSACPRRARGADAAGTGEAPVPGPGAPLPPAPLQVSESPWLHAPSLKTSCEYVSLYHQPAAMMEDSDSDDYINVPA

## Isotype Control (antibody)
[1]
  mean fluorescence intensity: 25.6
[2]
  mean fluorescence intensity: 25.6

B1: FCMR 2A5 antibody (antibody, V domains shown)
VH: EVQLVESGGDLVKPGGSLKLSCAASGFTFSSYGMSWVRQTPDKRLEWVATINSGGSSIYYPDSVKGRFTISRDNAKNTLYLQMSSLKSEDTAMYYCARHNYDSSYRYAMDYWGQGTSVTVSS
VL: DIKMTQSPSSMYASLGERVTITCKASQDINNFLSWFQQKPGKSPKTLIYRANGLVDGVPSRFSGSGSGQDYSLTISSLEYEDMGIYYCLQYDEFPPTFGGGTKLEFKR
[3]
  Kd: 7.21 nM
  koff: 0.000247 s⁻¹
  kon: 34700 M⁻¹ s⁻¹
[4]
  mean fluorescence intensity: 960
[5]
  mean fluorescence intensity: 247
[6]
  mean fluorescence intensity: 414
